{
  "source": "paper PMC2291188",
  "about": "(The Journal of Cell Biology, 1995)",
  "target": "T1, proPC2 (proform of the prohormone convertase PC2) (UniProt P28841 25-637)",
  "T1 sequence (looked up)": "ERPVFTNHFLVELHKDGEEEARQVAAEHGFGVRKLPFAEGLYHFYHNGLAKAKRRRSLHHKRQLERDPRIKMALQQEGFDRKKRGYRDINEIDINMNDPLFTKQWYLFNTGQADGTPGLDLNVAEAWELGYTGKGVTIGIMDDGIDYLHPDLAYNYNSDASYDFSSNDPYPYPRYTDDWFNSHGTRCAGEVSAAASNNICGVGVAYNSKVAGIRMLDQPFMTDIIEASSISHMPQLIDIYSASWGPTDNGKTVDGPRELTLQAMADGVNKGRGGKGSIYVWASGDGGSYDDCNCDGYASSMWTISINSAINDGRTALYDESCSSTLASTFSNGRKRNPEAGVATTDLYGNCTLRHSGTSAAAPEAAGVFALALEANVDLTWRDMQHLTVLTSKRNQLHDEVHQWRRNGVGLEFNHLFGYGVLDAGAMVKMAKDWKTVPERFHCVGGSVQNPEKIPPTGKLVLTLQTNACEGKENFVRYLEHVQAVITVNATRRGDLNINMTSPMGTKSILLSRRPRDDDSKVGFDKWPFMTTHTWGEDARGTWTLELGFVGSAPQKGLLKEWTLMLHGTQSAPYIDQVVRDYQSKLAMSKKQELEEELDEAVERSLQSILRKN",
  "experiment": "co-IP",
  "note": "“And” between values parts separate entries of the source, which are not always exact repeats. Equal values may be shown once.",
  "data": [
    {"binder": "27 kD 7B2 (rat) (natural protein, UniProt P27682 25-210, looked up) YSPRTPDRVSETDIQRLLHGVMEQLGIARPRVEYPAHQAMNLVGPQSIEGGAHEGLQHLGPFGNIPNIVAELTGDNIPKDFSEDQGYPDPPNPCPLGKTADDGCLENAPDTAEFSREFQLDQHLFDPEHDYPGLGKWNKKLLYEKMKGGQRRKRRSVNPYLQGKRLDNVVAKKSVPHFSEEEKEPE", "values": [
      {"measurement": "stoichiometry N", "value": "1.12 mol 7B2 per mol PC2 (molar ratio, Clone#1) and 1.09 mol 7B2 per mol PC2 (molar ratio, Clone#2)"}
    ]}
  ]
}
